Reference: the domain aggregation screens of Martell et al. (2025)

Assay: soluble fraction after stress (log2 fold change); higher = more stays soluble; pooled small domains, quantitative proteomics
Conditions: stress: 50 degC
Outline: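 Quantitative proteomics served as the high-throughput read-out for pooled custom libraries of small protein domains. Each was stressed at 50°C. Aggregation propensity is expressed as the base-two log fold change in soluble protein after stress. A higher value means a larger share of the protein remains in solution.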

| Sequence | soluble fraction (log2) |
| --- | --- |
| HMGVYDLIYLGYGINVEKEELVDQNISIIRRYANIFDPNGDIKGSTNPTYASNTAVLFNEAKFIIDGYD | -3.65 |
| HMIDAHTTLLAKRLESKGFLALTDKSSAEEIYEEFGISKKAFKKALGALYKERLVRIGEDGVVWM | -1.43 |
| HMGLVQQSAQKSDDAAKLMAANNLNAAQSKYQLPDEAEKDFFTFAFERGYAVEDFVDAGLVDKIMADFSA | -0.078 |
| HMNTIIHPIRLAYVDSGSIKSMAEQAEIDVKILTSEANSQIFWAIGDEKQIDRLYNLISQVDIIQNK | -0.211 |
| HMDDVIEVEGKVVEVLPNTKFIVELANSHKITAHISGKLRMNYIRIMKGDNVTVEMSPYDLTKGRIIWRS | -0.00397 |
| HMQALDNNDALEEIIKKVITENPSQVTEFRNGKDSLMNFLVGKVMAASGGKANPKTLPETIEKIIK | 0.12 |
| HMQKITPDNWTYIRSLIRQKWSPDQIDQWLKKHPDVGFTVSRETIYQYVKEDRQKDGDLYLSLRRAGKSY | -1.71 |
| HMNREENIQIGRDLLERELRKQGMDLQENLRQEVLLDGAKKLGFNNTDDLLAAIGDLKVTPAMFIGKIA | 0.0695 |
| HMDRFVLQLSKRYYDSSIEGVRKALAAFPVKTELLDQDRGGRPFYHENGKENEPVFRIMFHPEEGM | -0.542 |
| HMILKNVTSDLANKRLDKVASILFQTYSRTQIKKWILEGRVLVNGEISNPKDHVHENDEIEINPI | -1.04 |
| HMVDVNLLKYYVMESGKSLTDVAAAIGVTPATLHRKMSGESDFYRKEMQDIASYLGLDRDTIDRIFF | -1.01 |
| HMHVSIAENIRRIRTQHDMTQEEFGKVAAVSAMAVSQWENGRAVPRMGAVQRIADYFNISKGEVID | -0.543 |
| HMVQVHEWTNKAGRTIKAKFVRGDAQSVTIFLGGRNFVLKIADLSEESQALARKLSAPPPPP | -0.607 |
| HMKKEDFLEILRDYLKKGFSEDEVMDILRDYEEYFVDGIIEGKSEIEIIQSLGSPKEIANELLAES | -0.202 |
| HMSGAQIQQLLESRAPQPGMNPDMIVRRKTYMNNVFNALKGALLRVANGSSPEEVKTEVDAAIQVDPDKL | 0.0889 |
| HMKPSKTVYTTANLNLRNGASMSAAVYTSVSRGTALATTGRTTSGWTQITHRGRTLWASSKYLTTTTPP | -2.68 |
| HMQASISVDEAKSIALNYAKFTADQVVYTKSELDYDDGRAEYEIEFYAGGKEYSFTIDAVSGTVLEMEI | -1.7 |
| HMNPLLSAYLAEVERGLQGLTAGRRRLVLRELEAHLLDEAEARGLLTEEDMRALLMEKEPPERLAQEIAQ | -0.0936 |
| HMDANAYTYKVSEDTDTRTGEKIFLVKVAEKLSRKEYIVVNNYMKSLGSYYSKFKHAFLFKENPTEKL | -0.23 |
| HMFYNELMNFIVYKDSQKIGKIVNINDKLPQPVFEVLINDKKFMVPIHDDFIEKIDKEKKSIHIVIPDGLL | 0.0184 |
| HMNSLQNNLKQARTRVGLTQGVLASQAGISRQAYSTLESGSANPSTEVALRLAQALQERVELLFYLPER | -0.705 |
| HMGNIYKALLGKLEKQLGFLPEGTKLPPEQELAEKFGVSKPTLRRALAELAVRGIIVKQNGIGSVVAGS | -0.142 |
| HMEPKQIEVPNLVGISSAAARQTLSALGLHAVVKDSIWSETERIDTVLEQNPAGGALIKPEGTVYLRVSR | 0.033 |

| Sequence | soluble fraction (log2) |
| --- | --- |
| HMSRVHHGFNISIARNRKGLKQAALADMLGISQQRLSQLENQRVVKDEILEKVSEATGVSVEDLKTIE | -0.253 |
| HMYQPLYEQIKRMLTQSLIDGEWKAGEMIPSEMELAARFKVSQGTVRKAIDELVSENILMRRQGKGTFVH | -0.231 |
| HMASPKEALWRSLAEEPDTWWDNRERKSQPGANPRSPDFKHKESGEALWIESRDTPTWVLETL | 0.1 |
| HMSSRLEIEITSKIDDLSHTWRAVGAKQPKGNIKSSLLPSGVKVGETFRVEADFLLDGIEIVSVLPP | -1.44 |
| HMDFVKGDTVVFIDAFMPDHLMTIHKVQGEGILLDGNHKFALAHLIRHASTVELNAKRRLSLTEQS | -2.05 |
| HMKNAMTDIYLEEIKKILTKNEFLVYTLRELNNFSVQFITDNYDLSEKTIYNSVYRAKKKIDRHFT | -0.0693 |
| HMELLPFEFARANRVLLRVNESDLVVSPDANHSAVTEILRLNNNIETIKSVDAEAFDKILSSIYSG | -0.765 |
| HMLPVLEIGTMIRIIRQPHFGTIARVVALPEELTKVESETLVRILDAEFDDGTRVRIPRANVEVIE | -1.25 |
| HMLYEDVQVPNVRYWKSRDAKKQLEDLGLRVLTEHVNDAYIQSDQVIRTSPEIGDTLRTGDTVTLYVSDG | 0.185 |
| HMVAADTVQVPDVTGKTVADAKQALISAGLQVGTVTAKDGKETANTILETSPAAGTSVDKGSKVNLVYSTG | -0.185 |
| HMLPERIQTIVALIGHGRAMDLVREFGGQEIKFPAQEGNDTWAALVEVIGEAATRKLAAVFGGGQAPPVYI | -0.778 |
| HMNTELSPKVWDVVQEFILYRKEIKAPMTEHAVKLLIGQLQKLSSDPDEQIEILRQSIVNGWKGIFSLK | -0.183 |
| HMISLNEDQKLAILNEWNQRPDDPPFIKELIELVFPDIPEEAKTGRSRYGIAIKKFLAEKSLQAKV | -0.305 |
| HMPESYFEMLQKLLETYALPQEGTIYFSAADLARMPQKFEDVIEQTAQKKGGHLVVSKEPKDMDGGFVLV | -1.41 |
| HMWQKGEPAITGLKRISKPGLRIYSKNDELPIVYGNRGIAVISTNKGVMTGIEAKRSGVGGEVLFYV | -0.045 |
| HMYPEETVNKILDVSMQLFLEKGYEHTSIQDIVNHLGGLSKGAIYHHFKSKEDILDGVMNKLYQNN | -0.816 |
| HMGDIFTAEDAKERIDYSGVDGIMLARGIFGNPWLIRDIREYLEYGKILHPVTQLDRVNMAIEHTRKT | 0.0388 |
| HMAETLLWADAAQEGLNRIVAAQPILVRISAAKRLRDASEQAAKAAGVSTVEIGHVQHASESLQFGDA | 0.165 |
| HMGVGIEALAVEVDRIRQVLTGGGALSDIQLFSQLKALGEVKTALSSMTDPRARELEKRVAQLLEASLRT | -0.0594 |
| HMQKPDIEVDFAEGDMVVVTGGAWKDTAGVITGINMQKQTVTINVELFGRETPVEISFTEIKKA | 0.00574 |
| HMSTSEQVYTTDKVNVRREADTSSEKLGSLEKGTAISRTGTEGEWSVVNYGGVTGYIKTEFLTTEQPQ | 0.132 |
| HMAVENTGLSKRELEILQMMARGMSNQEIGDALFISLSTVKTHVASIFSKLQAVRRTQAVGIAKSLKII | -0.917 |
| HMVRSLESESVYDRQRAYEIAYQLRTEERPYSFIATQLNKAGLRPQKAARYEWYSVQELLRSA | -0.956 |

| Sequence | soluble fraction (log2) |
| --- | --- |
| HMDEFAGSAKPLADGAAPAGYDVKGNKDSMKYHEPGGRWYDATVAEVWFKTAADAEAAGFVKAGA | 0.172 |
| HMFVTFFHELKSAGVPVSLREYLTLMEAMDRDLASRRVEEFYYLARTALVKDERNLDKFDRVFGHVFKGL | -3.65 |
| HMEELPVLHLKHVVVEGESLWKLAEQYLNDGTRWQEIYMLNRENISNPDLIREGQELNIQFLQGE | -0.574 |
| HMYNIDSFMTKNYPTMERFTLSDVQKKYKTTFGLFVKQDELASMIEKTGRFNITSSKNVKYVNR | -1.77 |
| HMPQKSDLTMEEYNKLGLAGGSGSRKLREQVGIRLSVGYGNSKQFYNRLHTFGISLDELKTAVEEVKNG | -0.117 |
| HMNRITEFVVPEGTKKIRADKLLAESFPDHSRSDFHRAFDASLVRLEGQPISKNRKISQGDVLVFEMPEI | 0.281 |
| HMGIDISAFSETALQVLRLQAAGYTAKEISEKLHITPRTVKYHASQNYRKLDAKNLVDAVQIAQALHI | -1.26 |
| HMPKNEHETKAIGNQTGGRVFLFLNTDNINRDYNMYISKQVKFVREISQEYYGKVAVFEDLYGNLWDLIE | 0.149 |
| HMGVRDIRIFERNNSFFVNAEIRGEAQLSVPITRTDYQLFKENKIDALSLVEKYYAEELNASNEMK | -0.164 |
| HMNEYSLVPDIYGMTYDDALSSLRNVGLDGRLALASTNEDLANADTRVVWQSKEAGSIIDKGSNVMFVID | 0.0609 |
| HMGYDDLEPFDANGRLRWSDQELVLAFGRHRGATLRTLELNDPSYLRWLLSGNGPLEQQDIQRLEQILES | -1.26 |
| HMSKKTQKDEVVDLFLKTGNEPLHYKEISKKTGIIVHNVRRITGQNVVGKTDNPVFKRVSPGVYKLID | -0.546 |
| HMIPESVQGIEEFLATGALKGIGKKTAAAIVHKFGKDTLRIMEEEPERLAEVSGIGEKKAAAIGEAFALH | 0.171 |
| HMDERLLRLYERELQFLREGADEFAQAYPKVAGHLGLNSQSMGDPFIERLLEGLGFLTARIQLQLESEF | -0.0252 |
| HMKKLTGVQKAAILMIALGPDISSSIIKRLPENMVERITYEIANMTKITAQQRNDILKEFMDMTVAQ | -1.02 |
| HMVEGMQFDRGYQSPYFVTNAEKMVAELDNPYILLVEKKISSMKELLPVLEPVAQQGKSLLIISEEVEG | -0.0564 |
| HMRDPLNTGFRQTLKDIVNSLPKNELYSPGVREEYIYPKIGVTSLGMEASMVLNGLISSRRKNIELKEKN | 0.447 |
| HMHKPLRILVYEELRMLIMTGQIKPGTRMMEIDLAESMGVSRTPVREAIRQLEKDNLVTIEPRRGAYVSD | -2.45 |
| HMPPELSDEVMEEAMSYLKNQYLNHGVKLEDYPALNKLFVDEAFRSEVIRKTQSNYKISYQSAMASLD | 0.0219 |
| HMSQPLYWQIRRMVIDHDDANDVLQNTFIKAWSNIGSFRGDAKFSTWLYKIAVNESITFINKKKVQN | -0.469 |
| HMEFNQAVQDVNELSMQYAKSDVLWPEFEPKVLAFAKNELSQMPPNQWKFALQTFYNGLKQAA | -0.352 |
| HMDAPIIRLLNSLVQRAVTTTASDIHIEPFEGETKVRMRIDGVIIDYVTLQRALHQPLIARIKIMSNLD | -0.202 |
